Data on 1 molecule can be found in US20220153854A1.

This assay deals with membrane bound human OX40L on CHO-KI cells (human) (UniProt P23510). Nature of the assay: cell-based or functional assay.
Sequence of membrane bound human OX40L on CHO-KI cells (human) (P23510 whole entry): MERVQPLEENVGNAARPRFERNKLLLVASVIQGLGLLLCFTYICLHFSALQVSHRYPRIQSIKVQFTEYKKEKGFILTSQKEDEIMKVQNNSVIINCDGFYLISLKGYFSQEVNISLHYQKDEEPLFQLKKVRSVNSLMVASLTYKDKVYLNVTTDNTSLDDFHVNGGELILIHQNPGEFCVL

B1: ISVD construct F027100172 (protein, part only; not given: anti-IL-13 building blocks, part only)
chain, part: DVQLVESGGGVVQPGGSLRLSCAASRSIGRYDRMGWYRHRPGEPRELVATITGGSSINYGDSVKGRFTISIDNSKNTVYLQMNSLRPEDTALYYCNFNKYQISRDTWGQGTLVTVSSGGGGSGGGSGGGGSGGGSEVQLVESGGGVVQPGGSLRLSCAASGFTFRSFGMSWVRQAPGKGPEWVSSISGSGSDTLYADSVKGRFTISRDNSKNTLYLQMNSLRPEDTALYYCTIGGSLSRSSQGTLVTVSSGGGGSGGGS
Consider B1, for which the PBMC activity assay IC50 turned out to be 2.5 nM, the fold better potency in the OX40L-driven PBMC activity assay against the non-affinity matured counterpart (15B07) was found to be 20 fold and the fold better potency in the PBMC activity assay against F-027100179 amounted to 10 fold.
